The labels stand for the following.
B2: RecC subunit of E. coli RecBCD (natural protein, UniProt P07648 1-1122, looked up)
chain: MLRVYHSNRLDVLEALMEFIVERERLDDPFEPEMILVQSTGMAQWLQMTLSQKFGIAANIDFPLPASFIWDMFVRVLPEIPKESAFNKQSMSWKLMTLLPQLLEREDFTLLRHYLTDDSDKRKLFQLSSKAADLFDQYLVYRPDWLAQWETGHLVEGLGEAQAWQAPLWKALVEYTHQLGQPRWHRANLYQRFIETLESATTCPPGLPSRVFICGISALPPVYLQALQALGKHIEIHLLFTNPCRYYWGDIKDPAYLAKLLTRQRRHSFEDRELPLFRDSENAGQLFNSDGEQDVGNPLLASWGKLGRDYIYLLSDLESSQELDAFVDVTPDNLLHNIQSDILELENRAVAGVNIEEFSRSDNKRPLDPLDSSITFHVCHSPQREVEVLHDRLLAMLEEDPTLTPRDIIVMVADIDSYSPFIQAVFGSAPADRYLPYAISDRRARQSHPVLEAFISLLSLPDSRFVSEDVLALLDVPVLAARFDITEEGLRYLRQWVNESGIRWGIDDDNVRELELPATGQHTWRFGLTRMLLGYAMESAQGEWQSVLPYDESSGLIAELVGHLASLLMQLNIWRRGLAQERPLEEWLPVCRDMLNAFFLPDAETEAAMTLIEQQWQAIIAEGLGAQYGDAVPLSLLRDELAQRLDQERISQRFLAGPVNICTLMPMRSIPFKVVCLLGMNDGVYPRQLAPLGFDLMSQKPKRGDRSRRDDDRYLFLEALISAQQKLYISYIGRSIQDNSERFPSVLVQELIDYIGQSHYLPGDEALNCDESEARVKAHLTCLHTRMPFDPQNYQPGERQSYAREWLPAASQAGKAHSEFVQPLPFTLPETVPLETLQRFWAHPVRAFFQMRLQVNFRTEDSEIPDTEPFILEGLSRYQINQQLLNALVEQDDAERLFRRFRAAGDLPYGAFGEIFWETQCQEMQQLADRVIACRQPGQSMEIDLACNGVQITGWLPQVQPDGLLRWRPSLLSVAQGMQLWLEHLVYCASGGNGESRLFLRKDGEWRFPPLAAEQALHYLSQLIEGYREGMSAPLLVLPESGGAWLKTCYDAQNDAMLDDDSTLQKARTKFLQAYEGNMMVRGEGDDIWYQRLWRQLTPETMEAIVEQSQRFLLPLFRFNQS

Assay [1] addresses T1, RecB subunit of E. coli RecBCD (134 kDa) (E. coli, UniProt P08394 1-1180).
T1 sequence (looked up): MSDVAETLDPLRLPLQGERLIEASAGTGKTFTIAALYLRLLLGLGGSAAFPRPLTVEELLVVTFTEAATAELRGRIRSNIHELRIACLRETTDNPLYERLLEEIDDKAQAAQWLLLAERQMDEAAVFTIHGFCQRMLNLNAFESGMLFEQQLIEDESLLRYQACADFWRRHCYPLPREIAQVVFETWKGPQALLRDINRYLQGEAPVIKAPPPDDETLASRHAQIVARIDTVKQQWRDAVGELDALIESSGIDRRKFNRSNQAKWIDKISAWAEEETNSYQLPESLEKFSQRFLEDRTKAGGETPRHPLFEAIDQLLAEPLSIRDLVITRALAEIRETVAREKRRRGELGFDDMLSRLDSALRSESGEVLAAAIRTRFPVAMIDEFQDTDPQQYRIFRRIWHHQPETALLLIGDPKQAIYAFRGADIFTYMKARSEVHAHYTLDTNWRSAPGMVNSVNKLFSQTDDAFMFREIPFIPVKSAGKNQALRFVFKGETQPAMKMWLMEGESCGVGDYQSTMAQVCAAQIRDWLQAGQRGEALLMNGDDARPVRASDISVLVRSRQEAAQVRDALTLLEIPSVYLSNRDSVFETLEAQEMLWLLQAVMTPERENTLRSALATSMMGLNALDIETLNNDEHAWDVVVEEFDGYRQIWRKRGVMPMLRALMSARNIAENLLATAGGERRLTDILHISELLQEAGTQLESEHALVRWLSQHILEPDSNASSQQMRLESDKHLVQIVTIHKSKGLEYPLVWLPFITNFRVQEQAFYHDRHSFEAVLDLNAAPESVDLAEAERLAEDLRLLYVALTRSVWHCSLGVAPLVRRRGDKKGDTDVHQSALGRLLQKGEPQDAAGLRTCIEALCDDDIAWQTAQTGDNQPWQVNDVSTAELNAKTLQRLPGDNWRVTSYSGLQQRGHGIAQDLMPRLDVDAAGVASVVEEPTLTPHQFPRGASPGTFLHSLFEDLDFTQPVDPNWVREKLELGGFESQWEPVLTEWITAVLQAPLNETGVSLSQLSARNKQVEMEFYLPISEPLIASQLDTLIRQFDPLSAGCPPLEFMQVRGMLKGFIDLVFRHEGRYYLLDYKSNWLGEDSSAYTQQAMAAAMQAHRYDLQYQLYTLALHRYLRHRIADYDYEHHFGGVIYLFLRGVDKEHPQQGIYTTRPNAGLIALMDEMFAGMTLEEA
In words: AUC.

The target in assay [2] is B2. Kind of assay: AUC.

B1: RecD subunit of E. coli RecBCD (enzyme, UniProt P04993 1-608, looked up)
chain: MKLQKQLLEAVEHKQLRPLDVQFALTVAGDEHPAVTLAAALLSHDAGEGHVCLPLSRLENNEASHPLLATCVSEIGELQNWEECLLASQAVSRGDEPTPMILCGDRLYLNRMWCNERTVARFFNEVNHAIEVDEALLAQTLDKLFPVSDEINWQKVAAAVALTRRISVISGGPGTGKTTTVAKLLAALIQMADGERCRIRLAAPTGKAAARLTESLGKALRQLPLTDEQKKRIPEDASTLHRLLGAQPGSQRLRHHAGNPLHLDVLVVDEASMIDLPMMSRLIDALPDHARVIFLGDRDQLASVEAGAVLGDICAYANAGFTAERARQLSRLTGTHVPAGTGTEAASLRDSLCLLQKSYRFGSDSGIGQLAAAINRGDKTAVKTVFQQDFTDIEKRLLQSGEDYIAMLEEALAGYGRYLDLLQARAEPDLIIQAFNEYQLLCALREGPFGVAGLNERIEQFMQQKRKIHRHPHSRWYEGRPVMIARNDSALGLFNGDIGIALDRGQGTRVWFAMPDGNIKSVQPSRLPEHETTWAMTVHKSQGSEFDHAALILPSQRTPVVTRELVYTAVTRARRRLSLYADERILSAAIATRTERRSGLAALFSSRE
In the case of B1, the binding result in assay [1] and in assay [2] was “binds” each time. In the case of B2, the binding result in assay [1] was “binds”.

For the origin of these results see article PMC8996488 (Journal of molecular biology, 2021).
